Results from patent US20200087364A1 (IMMATICS BIOTECHNOLOGIES, published 2020).

target: T1, HLA-A*01:01 (human); experiment: UV-ligand exchange, anti-b2m ELISA
T1 construct: MHC class I monomer first loaded with a UV-sensitive peptide (not identified) that is cleaved by UV irradiation and exchanged for the tested peptide; captured on streptavidin plates, detected with anti-β2m; also called peptide-receptive MHC molecules
Method in brief: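 Peptide–MHC complexes made by UV-ligand exchange of a UV-cleavable peptide; exchange yield measured by ELISA on streptavidin-coated plates, samples diluted 100-fold, 1 h 37 °C. Detection with 2 ug/ml HRP anti-β2m, TMB, A450; refolded HLA-A*02:01/MLA-001 monomer standards 15-500 ng/ml.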

Binder	peptide exchange yield [%]
YTSHEDIGY	> 75
YPDLSELLM	20 to 50
HMLAAMAY	20 to 50
FYLSTPENYHY	50 to 75
ESDEMENLLTY	50 to 75
ENSIEDLQY	50 to 75
VLDFAPPGASAY	> 75
GQFTGTAGACRY	20 to 50
TTEMVSNESVDY	> 75
LMTVLLKY	50 to 75
TCSHTFVYY	20 to 50
ESQTCASDY	50 to 75
LPAPGFLFY	20 to 50
TLEDLDNLYNY	50 to 75
GQRLDEAMISY	50 to 75
RLDEAMISY	50 to 75
EVDSVALSL	20 to 50
MMEMEGMY	50 to 75
VSINPNSGDIY	50 to 75
QAMPSWPTAAY	20 to 50
PSEVPVDSHYY	50 to 75
VLPHHSEGACVY	50 to 75
TEEKFVSY	10 to 20
AATVKSDIY	20 to 50
ETILVSSSY	20 to 50
KFDVINHYF	20 to 50
TSDVTGSLTY	> 75
QITSFASGTSY	50 to 75
GFGGLSSQGVYY	50 to 75
ATDMEGNLNY	50 to 75
